Molecular target: H3-H4 (Xenopus laevis, UniProt P84233 1-136; P62799 1-103)
Assay: SEC

binding result: binds
B1: co-purified Rtt109-Vps75 complex (complex)
chain 1: MSLNDFLSSVLPVSEQFEYLSLQSIPLETHAVVTPNKDDKRVPKSTIKTQHFFSLFHQGKVFFSLEVYVYVTLWDEADAERLIFVSKADTNGYCNTRVSVRDITKIILEFILSIDPNYYLQKVKPAIRSYKKISPELISAASTPARTLRILARRLKQSGSTVLKEIESPRFQQDLYLSFTCPREILTKICLFTRPASQYLFPDSSKNSKKHILNGEELMKWWGFILDRLLIECFQNDTQAKLRIPGEDPARVRSYLRGMKYPLWQVGDIFTSKENSLAVYNIPLFPDDPKARFIHQLAEEDRLLKVSLSSFWIELQERQEFKLSVTSSVMGISGYSLATPSLFPSSADVIVPKSRKQFRAIKKYITGEEYDTEEGAIEAFTNIRDFLLLRMATNLQSLTGKREHRERNQPVPASNINTLAITMLKPRKKAKALPKT
chain 2: MMSDQENENEHAKAFLGLAKCEEEVDAIEREVELYRLNKMKPVYEKRDAYIDEIAEFWKIVLSQHVSFANYIRASDFKYIDTIDKIKVEWLALESEMYDTRDFSITFHFHGIEGDFKEQQVTKVFQIKKGKDDQEDGILTSEPVPIEWPQSYDSINPDLIKDKRSPEGKKKYRQGMKTIFGWFRWTGLKPGKEFPHGDSLASLFSEEIYPFCVKYYAEAQRDLEDEEGESGLSADGDSEDDDGSLGEVDLPLSDEEPSSKKRKV
modifications: acetyl-lysine at K290 (wildtype Rtt109 used is fully acetylated at K290, unpublished data)

— article PMC2917178 (Biochemistry, 2010)
